{"source": "paper doi:10.1101/2025.02.26.640323", "about": "“Aggregation-Dependent Epitope Sequence and Modification Fingerprints of Anti-Aβ Antibodies” (bioRxiv, 2025)", "molecules": {"B1": {"name": "Lecanemabbs: humanized monoclonal, biosimilar of Lecanemab, Proteogenix (#PX-TA1746) and BioXCell (#BXC-SIM0032) (antibody, chains of the INN, looked up, V domains shown)", "VH": "EVQLVESGGGLVQPGGSLRLSCSASGFTFSSFGMHWVRQAPGKGLEWVAYISSGSSTIYYGDTVKGRFTISRDNAKNSLFLQMSSLRAEDTAVYYCAREGGYYYGRSYYTMDYWGQGTTVTVSS", "VL": "DVVMTQSPLSLPVTPGAPASISCRSSQSIVHSNGNTYLEWYLQKPGQSPKLLIYKVSNRFSGVPDRFSGSGSGTDFTLRISRVEAEDVGIYYCFQGSHVPPTFGPGTKLEIK", "modifications": "biosimilar"}, "B2": {"name": "Lecanemab: designed at Uppsala University, humanized by BioArctic, later licensed to Eisai (antibody, chains of the INN, looked up, V domains shown)", "VH": "B1 VH", "VL": "B1 VL"}}, "key": {"[1]": {"assay": "Isoelectric point on CIEF immunoassay", "assay_type": "physicochemical", "details": "Peggy Sue", "experimental": "(§1) Automated capillary isoelectric focusing immunoassays were performed with a Peggy-Sue system (ProteinSimple,San Jose, California, USA), essentially as previously described and [53].\n(§2) In brief, synthetic Aβ peptide variants were separated by isoelectric focusing in microcapillaries followed by photochemical immobilization to the inner capillary walls and probing with the primary antibodies for 120 min. After 2 washes, the horseradish peroxidase conjugated secondary antibodies were loaded and incubated for 60 min. After two washing steps, a luminol/peroxide mix was loaded, and chemiluminescent signals were recorded. The data was analyzed with the Compass for SW software. The following secondary antibodies were used: Anti-human IgG Secondary HRP antibody (Protein Simple, catalog number 043–491), Goat-Anti-Mouse-HRP Secondary Antibody ProteinSimple, catalog number 040–655) and Peroxidase-conjugated Affini Pure Donkey Anti-Human IgG (H+L) (1:100 dilution) (Jackson ImmunoResearch Laboratories Inc., West Grove, PA, code number 709–035-149)."}, "[2]": {"tested_on": "endogenous soluble Aβ in pooled human CSF", "assay": "IP-MS from pooled human CSF", "assay_type": "binding", "details": "250 μL pooled human CSF, CHCA matrix; two replicate measurements each from two independent immunoprecipitations"}, "[3]": {"tested_on": "amyloid precursor protein (APP770) residues 649–722", "assay": "Peptide microarray epitope pre-screening (overlapping 15-mers)", "assay_type": "binding, human", "details": "Aβ residue numbers; 15-mer peptides overlapping by 14AAs on cellulose conjugates, 0.5–1 μg/mL antibody, chemiluminescence", "experimental": "Information regarding binding epitopes and /or immunogens for most of the tested Aβ-Abs has been published and is summarized in Table 1. However, the binding epitope information was derived from varying methodologies. To provide an initial side-by-side comparison we pre-screened all of the listed Aβ-Abs in array format using copies of peptide libraries and standard antibody concentrations of 0.5–1 μg/mL (Figure 1a). The library comprised the amyloid precursor protein (APP770) residues 649–722, corresponding to the canonical Aβ1–42 amino acid sequence with additional 23 amino terminal and 9 carboxy terminal residues. […] For optimal signal to noise ratios and ideal selectivity profiles on the microarrays, the Aβ-Ab concentrations were adjusted for 3D6, 82E1, 11H3, 80C2 and 7H3D6 (Figure 1 – figure- supplement 1) and (Appendix 1–7). […] Specifically, Donanemabbs, 2–48 and Aβ-pE3 were raised against AβpE3-x (Table 1) and were expected to show preference for Aβ peptides starting with a pE(3).\nFigure 1. Microarray workflow and Aβ-Ab epitope pre-screening. (a) Schematic of the microarray workflow. The library comprised the amyloid precursor protein (APP) residues 649–722 (APP770 numbering), corresponding to Aβ residues −23 to 51, as a library of 15-mer peptides overlapping by 14AAs, copied in dozens, and probed for Aβ-Abs binding followed by analysis in MARTin. (b) The epitope screening binding data are summarized as a heatmap. Blue and red shades indicate the relative binding strength of the related arrayed peptides to the left and cognate Aβ-Ab on top. The blue – red scale is visualizing the normalized binding intensity for each antibody individually. The applied antibody concentrations ranged between 0.5–1 μg/mL.\nThe μSPOT assay was performed as previously described. […] Peptide arrays were synthesized using MultiPep RSi robot (CEM GmbH, Kamp-Lintford, Germany) on cellulose discs containing Fmoc-β-Ala linkers. Natural amino acid building blocks were purchased from IRIS (IRIS Biotech GmbH, Marktredwitz, Germany). Special building blocks employed in this study such as isomers, stereoisomers, phosphorylation and pyroglutamination […] modifications are listed here: Fmoc-L-Ser(PO(OBzl)OH)-OH (Iris – FAA1423), L-Pyroglutamic acid pentachlorophenyl ester (Novabiochem - 8.54203), Fmoc-L-Asp-OtBu (Iris – FAA1356), Fmoc-D-Asp-OtBu (Carbosolutions – CC05095) and Fmoc-D-Asp(tBu)-OH (Iris – FAA1309). Synthesis was carried out by deprotecting the Fmoc-group using 20% piperidine in dimethylformamide (DMF). Peptide chains were elongated using a coupling solution consisting of amino acids (0.5M) with oxyma (1M) and DIC (1M) in DMF (1:1:1). Coupling steps were carried out 3 times (30min), followed by capping (4% acetic anhydride in DMF). Discs were transferred into 96 deep-well plates for the work-up."}, "[4]": {"tested_on": "Aβ vascular and parenchymal deposits in AD brain sections", "assay": "Immunohistochemistry on AD brain tissue with antibody pre-adsorption", "design": "species or system human", "experimental": "Immunohistochemistry was performed on 4-μm paraffin sections. In brief, brain sections were deparaffinized in Roticlear (Carl Roth, Karlsruhe, Germany) and rehydrated in a descending series of ethanol. Activity of endogenous peroxidases was blocked by incubation in 0.3% H2O2 in PBS for 30 min. […] Antibodies and peptides were incubated on a rotator for 3 h at room temperature and reaction tubes were centrifuged at 13000 rpm for 5 min at the end of the incubation period. Control conditions included antibodies in 0.01 M PBS including 10% FCS without synthetic peptides. Adjacent paraffin-embedded sections from a human AD case were incubated overnight with the supernatants and sections were washed with 0.01 M PBS including 0.1 % Tergitol. For detection, biotinylated anti-human antibodies (6 μg/ml, Jackson ImmunoResearch, West Grove, Pennsylvania, USA #109-065-003) were used and staining was visualized with the ABC method with a Vectastain kit (Vector Laboratories, Newark, California, USA), diaminobenzidine as a chromogen and counterstaining with hematoxylin."}, "[5]": {"tested_on": "Aβ1–42 monomer, oligomer and fibril preparations; AβpE3–40", "assay": "Bistris-SDS gradient PAGE/Western blot", "assay_type": "binding", "details": "4–12% Bistris SDS-PAGE/Western blot", "experimental": "No SPR-487B) (StressMarq biosciences, Victoria, BC, Canada). The samples for electrophoresis were prepared (starting from stock solutions) with final concentrations of 0.1 μg/μL) in LDS sample buffer (247.5 mM Tris-HCl, pH 8.5, 2% (w/v) lithium dodecyl sulfate (LDS), 10% (v/v) glycerol, 0.5 mM EDTA, 0.22 mM Brilliant Blue G250, 0.175 mM Phenol Red) and denatured by heating at 70°C for 10 min. […] The prechilled transfer buffer contained 25 mM Tris, 192 mM glycine, 20% (v/v) methanol and 0.0375 % Tween-20. After blotting, the membrane was washed for 10 min at room temperature in Tris-buffered saline (TBS) followed by blocking for 30 min with 5% powdered milk in TBS containing 0.1% Tween-20 (TBS-T). The blots were then incubated with primary antibodies in 5% milk in TBS-T over night at 4°C and washed 3 × for 10 min with TBS-T at room temperature. […] After 1 h incubation with the secondary antibodies, the blots were washed 3 × for 10 min with TBS-T and incubated for 5 min with ECL-Prime Western Blotting Detection Reagent (Cytiva Amersham, Little Chalfont, England). Images were recorded on a Vilber-Loumart Fusion SL blot imager. […] That way, the 4G8 reprobing signals were essentially added on top of the initial signals and background artifacts."}, "[6]": {"tested_on": "synthetic Aβ peptide variants", "assay": "Capillary isoelectric focusing (CIEF) immunoassay", "assay_type": "binding", "details": "Peggy Sue, chemiluminescence", "experimental": "as §1, §2"}, "synthetic Aβ peptides": {"tested_on": "synthetic Aβ peptides", "assay": "Peptide Bicine-Tris SDS-PAGE/Western blot", "assay_type": "binding", "details": "PVDF, 50 ng per peptide, 0.5 μg/mL antibody"}, "Aβ": {"tested_on": "Aβ", "details": "cited from earlier work"}, "[7]": {"tested_on": "Alzheimer's disease patients", "details": "cited from earlier work"}, "[8]": {"details": "Lecanemabbs #BXC-SIM0032, 0.06 μg with 0.25 μg peptide"}}, "note": "Entries after “also recorded” stand apart in the source; their conditions may differ."}
{"molecule": "Aβ1–40: synthetic Aβ peptide, AnaSpec", "values": [{"measurement": "pI", "setting": "[1]", "result": 5.31}]}
{"molecule": "Aβ1–42: synthetic Aβ peptide, AnaSpec; monomers, oligomers, fibrils from StressMarq", "values": [{"measurement": "pI", "setting": "[1]", "result": "approx. 5.3"}]}
{"molecule": "Aβ−3–40: N-terminally elongated Aβ, provided by H.-J. Knölker, Technische Universität Dresden", "values": [{"measurement": "pI", "setting": "[1]", "result": 6.04}]}
{"molecule": "B1", "values": [{"measurement": "immunoprecipitation of endogenous Aβ from CSF", "setting": "[2]", "result": "immunoprecipitated authentic biological Aβ peptides from pooled human CSF; also recorded: Aβ1–40, Aβ1–38, Aβ42, Aβ1–37 and Aβ1–39 were detected, albeit with relatively low signal intensities"}, {"measurement": "Array: epitope identified in this study on microarrays", "setting": "[3]", "result": "3–7"}, {"measurement": "IHC immunoreactivity after pre-adsorption with Aβ1–42 fibrils", "setting": "[4]; Aducanumabbs 0.5 μg with 5 μg fibrils, Lecanemabbs (PX-TA1746) 0.06 μg with 0.25 μg, human AD brain, antibody for IHC: Aducanumabbs 0.5 μg/μl (so in the source)", "result": "efficiently blocked"}, {"measurement": "IHC immunoreactivity after pre-adsorption with Aβ1–42 monomers", "setting": "[4]; Aducanumabbs 0.5 μg with 10 μg monomers, Lecanemabbs (PX-TA1746) 0.06 μg with 0.25 μg, human AD brain", "result": "efficiently blocked"}, {"measurement": "IHC blocking by Aβ1–16 (BioXCell lot)", "setting": "[4]; [8]", "result": "did not"}, {"measurement": "IHC blocking by Aβ1–34 (BioXCell lot)", "setting": "[4]; [8]", "result": "did not"}, {"measurement": "IHC blocking by Aβ1–38 (BioXCell lot)", "setting": "[4]; [8]", "result": "did not"}, {"measurement": "IHC blocking by Aβ1–42 monomers (BioXCell lot)", "setting": "[4]; [8]", "result": "completely blocked Lecanemabbs binding"}, {"measurement": "IHC immunoreactivity after pre-adsorption with Aβ1–42 oligomers", "setting": "[4]; Lecanemabbs (PX-TA1746) 0.06 μg with 0.25 μg oligomers, human AD brain", "result": "efficiently blocked"}, {"measurement": "preference for Aβ1–42 aggregation state", "setting": "[5]", "result": "a certain, but not absolute preference for aggregated forms of Aβ1–42 over monomeric and low-n oligomeric forms"}, {"measurement": "Aβ variants detected on CIEF-immunoassay", "setting": "[6]", "result": "recognized Aβ1–40, Aβ1–42, Aβ3–40 (pI approximately 5.97) Aβ-3–40 (aka. APP669–711),phosphorylated pSer8-Aβ1–40; also recorded: detected Aβ1–40 (pI 5.31), Aβ2–40 (pI 5.98), Aβ3–40 (pI 5.97), Aβ−3–40 (pI 6.04), Aβ1–42 (pI approx. 5.3) and pSer8Aβ1–40 (amide) (pI 5.13–5.14)"}, {"measurement": "Aβ variants detected on Bicine-Tris SDS-PAGE/Western blot", "setting": "synthetic Aβ peptides", "result": "recognized Aβ1–40, Aβ1–42, Aβ3–40 (pI approximately 5.97) Aβ-3–40 (aka. APP669–711),phosphorylated pSer8-Aβ1–40"}]}
{"molecule": "B2", "values": [{"measurement": "Array: epitope identified in this study on microarrays", "setting": "[3]", "result": "3–7"}, {"measurement": "binding to aggregated versus monomeric Aβ", "setting": "Aβ; ref [38],[40],[41],[83]", "result": "strong preference for Aβ protofibrils and to bind Aβ monomers only weakly; also recorded: preferably bind specific aggregated forms of Aβ over monomeric forms"}, {"measurement": "preferential binding to fibrillar Aβ", "setting": "Aβ; ref [46]", "result": "preferential binding to fibrillar Aβ aggregates"}, {"measurement": "ARIA-E frequency", "setting": "[7]; cross-study comparison, ref [38]", "result": 13, "unit": "%"}, {"measurement": "clinical outcome, Clarity AD", "setting": "[7]; ref [45],[46]", "result": "positive results in the Clarity AD trial"}]}
